Earlier results in US5380646A, “Thrombus detection using radiolabelled disintegrins” (Temple University of the Commonwealth System of Higher …, priority 1992, dated 1995).

System: thrombi
Conditions: literature, in words

B1: tissue plasminogen activator: plasminogen activator (protein, UniProt P00750 36-562, looked up)
Tissue-type plasminogen …: SYQVICRDEKTQMIYQQHQSWLRPVLRSNRVEYCWCNSGRAQCHSVPVKSCSEPRCFNGGTCQQALYFSDFVCQCPEGFAGKCCEIDTRATCYEDQGISYRGTWSTAESGAECTNWNSSALAQKPYSGRRPDAIRLGLGNHNYCRNPDRDSKPWCYVFKAGKYSSEFCSTPACSEGNSDCYFGNGSAYRGTHSLTESGASCLPWNSMILIGKVYTAQNPSAQALGLGKHNYCRNPDGDAKPWCHVLKNRRLTWEYCDVPSCSTCGLRQYSQPQFRIKGGLFADIASHPWQAAIFAKHRRSPGERFLCGGILISSCWILSAAHCFQERFPPHHLTVILGRTYRVVPGEEEQKFEVEKYIVHKEFDDDTYDNDIALLQLKSDSSRCAQESSVVRTVCLPPADLQLPDWTECELSGYGKHEALSPFYSERLKEAHVRLYPSSRCTSQHLLNRTVTDNMLCAGDTRSGGPQANLHDACQGDSGGPLVCLNDGRMTLVGIISWGLGCGQKDVPGVYTKVTNYLDWIRDNMRP
ability to image or detect thrombi: only with marginal success
